Columns and labels:
[1] = system: KRAS wild-type or mutant colorectal, pancreatic, lung cancer and ovarian cancer cells (HT-29, DLD-1, HCT-116, SW620, Bx-pc3, L3.6pl, AsPC-1, H226, A549 …); assay: SRB (sulforhodamine B) cell growth assay in cancer cell lines; assay type: cell-based; details: 3.2, 16, 80, 400, 2000 or 10,000 nM, 72 hours; compared to negative control NIH3T3 cells; FIG. 1A
Description: To investigate the anticancer activity of the recombinant stabilized galectin-9 protein having the amino acid sequence of SEQ ID NO: 1, cell growth and apoptosis were observed after treatment of the recombinant protein in cancer cell lines having a KRAS wild type or KRAS gene mutation.
Specifically, to investigate the anticancer activity of the recombinant stabilized galectin-9 protein having the amino acid sequence of SEQ ID NO: 1, the protein was treated on cancer cell lines with KRAS wild-type or KRAS gene mutation, and the following cell lines were used: HT-29 for KRAS wild-type pancreatic cancer, DLD-1, HCT-116, and SW620 for KRAS gene-mutated colon cancer, Bx-pc3 for KRAS wild-type pancreatic cancer, L3.6pl and AsPC-1 for KRAS gene-mutated pancreatic cancer, H226 for KRAS wild-type lung cancer, A549 for KRAS gene-mutated lung cancer, SKOV3ip1 for KRAS wild-type ovarian cancer, and SKOV3 for KRAS gene-mutated ovarian cancer, and the cells were seeded at 5×10^3 cells per well in a 96-well plate and cultured at 37° C. for one day, and then the recombinant protein was treated with concentrations of 3.2, 16, 80, 400, 2000, or 10,000 nM per well, and cultured for 72 hours. After 72 hours of incubation, the cell growth was confirmed using the SRB (sulforhodamine B) assay kit (Abcam, US) according to the manufacturer's instructions. […]

DLD-1 cells [2] = assay: Annexin-APC and 7-AAD apoptosis analysis by flow cytometer; assay type: cell-based; details: 1,000 nM, 24 or 48 hours; FIG. 1B
Description: In addition, DLD-1 cells, a colorectal cancer cell line with KRAS gene mutation, were seeded at a density of 1×10^5 cells per well in a 6-well plates, cultured for 1 day at 37° C. and the recombinant protein from <Preparation Example 1> was then added to each well at a concentration of 1,000 nM, and the cells were further cultured for either 24 or 48 hours. After washing the cultured cells twice with cold PBD, the cells were stained using Annexin-APC and 7-AAD apoptosis kit (Biolegend, US) according to the manufacturer's instructions, and apoptosis was analyzed using a flow cytometer (CytoFLEX, Beckmancoulter) (FIG. 1B).

DLD-1 cells [3] = assay: colony formation assay; assay type: cell-based; details: 0, 50, 100, 250, 500, 1000 nM, 10 days, 3% v/v Matrigel; FIG. 2
Description: To investigate the anti-cancer activity of the recombinant stabilized galectin-9 protein having the amino acid sequence of SEQ ID NO: 1, the proliferation of cancer cells by colony formation assay was analyzed by treating KRAS mutant colorectal cancer cell lines with the recombinant protein.
Specifically, DLD-1 cells, a colorectal cancer cell line with KRAS gene mutation, were seeded in 6-well plates at 5×10^3 cells per well in a medium containing 3% v/v Matrigel, and then treated with the recombinant protein from <Preparation Example 1> at concentrations of 0, 50, 100, 250, 500, 1000 nM and incubated for 10 days. Then, after washing with phosphate-buffered saline, colonies were stained with a solution of 0.05% crystal violet, 1% formaldehyde, and 1% methanol in phosphate-buffered saline for 20 minutes at room temperature. The plate was then washing with distilled water and dried at room temperature for 16 hours. The number of colonies was measured by capturing images of the stained and dried plates and analyzing the images (FIG. 2).

[4] = body weight changes in pancreatic cancer-induced mouse model; assay type: in vivo, mice; details: intraperitoneal, 50 days, FIG. 4
Description: (§1) To investigate the anticancer activity of the recombinant stabilized galectin-9 protein having the amino acid sequence SEQ ID NO: 1, KRAS gene mutant pancreatic cancer cell line MIA PaCa-2 cells were transplanted and grown for two weeks to form pancreatic tumor tissue subcutaneously in mice, and the mice were then administered with the recombinant protein, and changes in body weight were monitored.
(§2) Specifically, the experiments were conducted in accordance with the Guide for the Care and Use of Laboratory Animals (NRC), and the mice were managed accordingly. After collecting mice with an average pancreatic cancer size of 200 nm 3, they were randomly classified into 5 group.
(§3) The experimental groups were classified into five groups (5 mice per group) as follows: control group (PBS), low-dose recombinant stabilized galectin-9 protein administration group (seal-9 0.5 mg/kg), high-dose recombinant stabilized galectin-9 protein administration group (seal-9 5 mg/kg), gemcitabine group (Gemcitabine 50 mg/kg), and combination of seal-9 and gemcitabine (seal-9 5 mg/kg+Gemcitabine 50 mg/kg). The mice were administered with seal-9 the given concentrations twice a week and/or gemcitabine once a week by intraperitoneal injection for 50 days, while monitoring changes in body weight (FIG. 4).

[5] = system: KRAS gene mutant pancreatic cancer (MIA PaCa-2) mouse model; assay: pancreatic cancer tissue size (MRI) in pancreatic cancer-induced mouse model; assay type: in vivo, mice; details: 50 days, FIG. 5; for size of pancreatic cancer tissue compared to the control group: intraperitoneal
Description: as §1, §2, §3
To investigate the anticancer activity of the recombinant stabilized galectin-9 protein having the amino acid sequence of SEQ ID NO: 1, the KRAS gene mutant pancreatic cancer (MIA PaCa-2) mouse model was established by using the same method described in Example <2-1> above, and seal-9 and/or gemcitabine were administered into the mice for 50 days and the change in the size of the pancreatic cancer tissue was evaluated using magnetic resonance imaging (MRI) (FIG. 5).

[6] = system: KRAS gene mutated pancreatic cancer (MIA PaCa-2) mouse model; assay: survival rate in pancreatic cancer-induced mouse model; assay type: in vivo, mice; details: 50 days, tumor size of 1700 mm3 or more considered as time of death, FIG. 6
Description: as §1, §2, §3
In this case, a pancreatic cancer tissue size of 1700 mm3 or more was considered as the time of death.

[7] = high-dose, seal-9 5 mg/kg twice a week
[8] = low-dose, seal-9 0.5 mg/kg twice a week

B1: seal-9: recombinant stabilized galectin-9 protein of SEQ ID NO: 1; linker region deleted, CCRD positions 1 to 10 deleted, Ala at position 13 substituted with Pro (protein)
chain: MAFSGSQAPYLSPAVPFSGTIQGGLQDGLQITVNGTVLSSSGTRFAVNFQTGFSGNDIAFHFNPRFEDGGYVVCNTRQNGSWGPEERKTHMPFQKGMPFDLCFLVQSSDFKVMVNGILFVQYFHRVPFHRVDTISVNGSVQLSYISFQHPPYPMPFITTILGGLYPSKSILLSGTVLPSAQRFHINLCSGNHIAFHLNPRFDENAVVRNTQIDNSWGSEERSLPRKMPFVRGQSFSVWILCEAHCLKVAVDGQHLFEYYHRLRNLPTINRLEVGGDIQLTHVQT
modifications: sGal-9
notes: linker region deleted, CCRD positions 1 to 10 deleted, Ala at position 13 substituted with Pro
cell growth [1]: inhibited cell growth | apoptosis (DLD-1 cells [2]): induced apoptosis | colony formation ability / proliferation of cancer cells (DLD-1 cells [3]): inhibited the proliferation of cancer cells in a concentration-dependent manner | changes in body weight [4, 7]: no significant changes in body weight | changes in body weight [4, 8]: no significant changes in body weight | size of pancreatic cancer tissue compared to the control group [5, 7]: decreased significantly | size of pancreatic cancer tissue compared to the control group [5, 8]: decreased significantly | size of pancreatic cancer tissue, seal-9 compared with conventional chemotherapy ([5]; seal-9 0.5 or 5 mg/kg vs gemcitabine 50 mg/kg): superior effect at lower doses than conventional chemotherapy | survival rate ([6]; high-dose, seal-9 5 mg/kg): superior survival rates | survival rate ([6]; low-dose, seal-9 0.5 mg/kg): superior survival rates

Source: patent US20230414712A1, “PHARMACEUTICAL COMPOSITION FOR PREVENTING OR TREATING CANCER COMPRISING RECOMBINANT STABILIZED GALECTIN 9 PROTEIN” (GBIOLOGICS INC., priority 2020, published 2023)
